In patent publication US20250082755A1:

Biological target: CD123 expressed on MOLM13 AML cells (UniProt P26951)
Assay: cell-based or functional assay

UniProt P26951, sequence (P26951 19-378 limits assumed): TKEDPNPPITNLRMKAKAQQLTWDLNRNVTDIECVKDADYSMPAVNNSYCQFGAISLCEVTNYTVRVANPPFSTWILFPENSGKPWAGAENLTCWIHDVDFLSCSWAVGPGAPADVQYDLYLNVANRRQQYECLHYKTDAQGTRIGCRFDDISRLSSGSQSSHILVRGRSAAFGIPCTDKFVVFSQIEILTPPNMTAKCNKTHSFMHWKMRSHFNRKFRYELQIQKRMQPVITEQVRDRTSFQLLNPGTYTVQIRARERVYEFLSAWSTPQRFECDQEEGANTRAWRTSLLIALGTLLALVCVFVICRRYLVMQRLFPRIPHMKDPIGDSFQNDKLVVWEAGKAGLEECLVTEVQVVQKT

| TIB153 % CD69 activation: MOLM-13-WT/MOLM-13 CD123KO | CD69 activation, Average MOLM13-WT fold change over MOLM-CD123KO [fold] | CD69 activation, MOLM13 fold change over MOLM-CD123KO, Replicate 1 [fold] | CD69 activation, MOLM13 fold change over MOLM-CD123KO, Replicate 2 [fold] | Substance |
| --- | --- | --- | --- | --- |
| 1.28 |  |  |  | IL3-K110E-41BBcostim (receptor) |
| 1.03 |  |  |  | IL3-K110E-CD28costim (SEQ ID NO: 29) (receptor) |
| 1.06 |  |  |  | IL3-K110E-nocostim (SEQ ID NO: 27) (receptor) |
| 4.74 | 3.84 | 4.74 | 2.94 | IL3-WT-41BBcostim (SEQ ID NO: 25) (receptor) |
